Experimental data from US20240376214A1, “ANTI-C-MET ANTIBODIES AND ANTIBODY-DRUG CONJUGATES” (BYONDIS B.V., priority 2021, published 2024).
Substitutions are numbered along the chain they refer to.

B1: mAb1a (antibody, human IgG1, kappa, V domains shown)
VH: QVQLVQSGAEVKKPGASVKVSCKASGYIFTDYFMNWVRQACGQGLEWMGRVNPKNGDITYNQKFRGRVSLTKDTSINTAYMELSGLTSDDTAIYYCAYDGYYDGMDFWGQGTSVTVSS
VL: ELVMTQSPSSLSASVGDRVTITCRANSSVSSNFLHWYQQKPGKAPKLLISSTSNLAFGVPSRFSGTGSGTDFSLTISSLQPEDFAIYYCHQYSGHPFTFGQGTKLEIKR
notes: Humanized IgG1 kappa, HC-41C, from wt/41C-chi-mAb1; also called humanized HC-41C antibody mAb1a; mAbla
B2: mAb2c (antibody, human IgG1, kappa, V domains shown)
VH: QVQLVQSGAEVKKPGSSVKVSCKASGYVFPDYEMHWVRQACGQGLEWMGAFDPETGDTTYNQNFKGRVTITADKSTSTAYMELSSLRSEDTAVYYCARDYKYLYYYAMDNWGQGTTVTVSS
VL: EIVLTQSPSLLSASIGDRVTIPCTASSSITSSYLHWYQQKPGKAPKLLIYSTTNLASGVPSRFSGSGSGTEFTLTISSLQPEDFATYYCHQYRRSPLTFGGGTKLEIKR
notes: Humanized IgG1 kappa, HC-41C, from wt/41C-chi-mAb2; also called humanized HC-41C antibody mAb2c
B3: mAb2a (antibody, human IgG1, kappa, V domains shown)
VH: B2 VH with V11L, K12R, K23R, T71A, S84R, V93I, T116M
VL: B2 VL
notes: Humanized IgG1 kappa, HC-41C, from wt/41C-chi-mAb2; also called humanized HC-41C antibody mAb2a
B4: mAb2b (antibody, human IgG1, kappa, V domains shown)
VH: B2 VH
VL: B2 VL with E1D, V3Q, L4M, L10S, I15V, P22T, E71D
notes: Humanized IgG1 kappa, HC-41C, from wt/41C-chi-mAb2; also called humanized HC-41C antibody mAb2b
B5: mAb3c (antibody, human IgG1, kappa, V domains shown)
VH: QVQLVQSGAEVKKPGASVKVSCKASGYTFTDYYLNWVRQACGQGLEWMGLIFPGNDKTEYSEKFKGRVTLTTDTSISTAYMELSSLTSDDTALYYCSGGDYGGFVYWGQGTLVTVSS
VL: DIQMTQSPSSLSASVGDRVTITCGASENIYGALNWYQQKPGKAPKLLIYGATNLADGVPSRFSGSGSGTDFTLTISSLQPEDVATYYCQNVLSSPLTFGSGTKLEIKR
notes: Humanized IgG1 kappa, HC-41C, from wt/41C-chi-mAb3; also called humanized HC-41C antibody mAb3c
B6: mAb3d (antibody, human IgG1, kappa, V domains shown)
VH: B5 VH with V5Q, Q6E, L70M, T72R, I76T, A79V, T87R, D89E, L93V
VL: B5 VL with M4L, V83F, S100P, L104V, E105D
notes: Humanized IgG1 kappa, HC-41C, from wt/41C-chi-mAb3; also called humanized HC-41C antibody mAb3d
B7: mAb3e (antibody, human IgG1, kappa, V domains shown)
VH: B5 VH with V5Q, Q6E, L70M, T72R, I76T, A79V, T87R, D89E, L93V
VL: B5 VL
notes: Humanized IgG1 kappa, HC-41C, from wt/41C-chi-mAb3; also called humanized HC-41C antibody mAb3e
B8: mAb3a (antibody, human IgG1, kappa, V domains shown)
VH: B5 VH
VL: B5 VL with M4L, V83F, S100P, L104V, E105D
notes: Humanized IgG1 kappa, HC-41C, from wt/41C-chi-mAb3; also called humanized HC-41C antibody mAb3a
B9: wt-chi-mAb2 (antibody, human IgG1, kappa, V domains shown)
VH: QVQLQQSGAELVRPGASVKLSCKASGYVFPDYEMHWVKQTPVHGLEWIGAFDPETGDTTYNQNFKGKATLTADKASSTAYMDLRSLTSGDSAVYYCARDYKYLYYYAMDNWGQGTSVTVSS
VL: QIVLTQSPAIMSASLGERVTMTCTASSSITSSYLHWYQQKPGSSPKLWIYSTTNLASGVPGRFSGSGSGTSFSLTISSMEAEDAATYYCHQYRRSPLTFGAGTKLELKR
notes: Mouse/human chimeric IgG1 kappa; also called wild-type chimeric antibody mAb2
B10: 41C-chi-mAb2 (antibody, human IgG1, kappa, V domains shown)
VH: B9 VH with P41C
VL: B9 VL
notes: Chimeric IgG1 kappa with an engineered cysteine at HC position 41 (Kabat); also called HC-41C chimeric antibody mAb2
B11: wt-chi-mAb1 (antibody, human IgG1, kappa, V domains shown)
VH: EVQLQQSGPELLKPGASVKMSCKASGYIFTDYFMNWVKQSHGKSLEWIGRVNPKNGDITYNQKFRGKATLTVDKSLTTAYMQLNSLTSEDSAVYFCAYDGYYDGMDFWGQGTSVTVSS
VL: ENVLTQSPAIMSASPGEKVTMTCRANSSVSSNFLHWYQQKSGASPKLWISSTSNLAFGVPPRFSGSGSGTSYSLTISSVEAEDAATYYCHQYSGHPFTFGSGTKLEIKR
notes: Mouse/human chimeric IgG1 kappa; also called wild-type chimeric antibody mAb1
B12: 41C-chi-mAb1 (antibody, human IgG1, kappa, V domains shown)
VH: B11 VH with H41C
VL: B11 VL
notes: Chimeric IgG1 kappa with an engineered cysteine at HC position 41 (Kabat); also called HC-41C chimeric antibody mAb1

What was measured:
[1] = molecular target: T1, rhesus c-Met on 4MBr-5 cells (rhesus, UniProt F7H1K4 25-1381, Natural c-Met is cleaved at the furin site (KRKKR/S) into disulphide-linked alpha and beta subunits; given here as one mature polypeptide.); test: flow cytometry, 4MBr-5 cells pre-incubated with 50 ng/mL HGF
T1 construct: also called rhesus c-Met antigen
T1 sequence (F7H1K4 entry or part of it limits assumed): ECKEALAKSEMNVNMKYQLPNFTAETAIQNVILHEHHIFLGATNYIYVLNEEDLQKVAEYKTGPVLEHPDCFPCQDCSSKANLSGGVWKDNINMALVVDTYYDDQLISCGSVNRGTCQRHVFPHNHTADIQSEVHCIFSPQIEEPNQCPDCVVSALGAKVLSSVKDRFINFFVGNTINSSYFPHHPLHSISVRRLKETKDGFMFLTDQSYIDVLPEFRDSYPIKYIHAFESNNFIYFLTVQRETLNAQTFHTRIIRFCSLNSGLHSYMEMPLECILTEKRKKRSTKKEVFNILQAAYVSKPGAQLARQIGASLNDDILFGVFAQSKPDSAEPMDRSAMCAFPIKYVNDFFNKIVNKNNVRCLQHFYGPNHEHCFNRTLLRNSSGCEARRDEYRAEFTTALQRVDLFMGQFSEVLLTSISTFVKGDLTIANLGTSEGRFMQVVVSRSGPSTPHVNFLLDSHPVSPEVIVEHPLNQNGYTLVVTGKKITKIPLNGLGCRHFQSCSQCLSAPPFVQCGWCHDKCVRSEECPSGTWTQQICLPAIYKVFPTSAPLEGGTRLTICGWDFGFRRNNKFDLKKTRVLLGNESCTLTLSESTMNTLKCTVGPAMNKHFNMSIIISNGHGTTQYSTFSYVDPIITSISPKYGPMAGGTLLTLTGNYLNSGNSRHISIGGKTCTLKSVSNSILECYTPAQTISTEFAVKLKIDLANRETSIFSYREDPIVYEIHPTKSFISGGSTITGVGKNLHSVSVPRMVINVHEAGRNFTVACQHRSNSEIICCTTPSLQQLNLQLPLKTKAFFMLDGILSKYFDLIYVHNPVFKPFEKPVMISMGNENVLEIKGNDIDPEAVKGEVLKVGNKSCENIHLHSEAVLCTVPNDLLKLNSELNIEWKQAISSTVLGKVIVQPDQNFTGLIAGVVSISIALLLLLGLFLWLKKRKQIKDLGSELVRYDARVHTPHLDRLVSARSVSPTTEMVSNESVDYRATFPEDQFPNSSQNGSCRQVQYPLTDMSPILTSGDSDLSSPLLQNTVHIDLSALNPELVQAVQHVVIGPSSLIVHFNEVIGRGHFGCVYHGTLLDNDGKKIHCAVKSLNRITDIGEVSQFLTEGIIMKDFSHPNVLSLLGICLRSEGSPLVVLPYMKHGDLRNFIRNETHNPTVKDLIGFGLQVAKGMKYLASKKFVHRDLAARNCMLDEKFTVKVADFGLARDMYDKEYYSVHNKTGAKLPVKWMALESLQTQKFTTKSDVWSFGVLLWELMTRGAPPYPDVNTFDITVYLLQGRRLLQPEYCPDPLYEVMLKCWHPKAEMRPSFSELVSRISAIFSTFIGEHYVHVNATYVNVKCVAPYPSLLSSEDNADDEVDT
Method: (§1) Cellular binding of the in total 75 humanized anti-c-Met antibodies (originating from the three selected chimeric antibodies) was studied in human c-Met-positive tumor cell lines MKN45, NCI-H596 and PC-3, rhesus c-Met-positive tumor cell line 4 MBr-5, and human c-Met-negative tumor cell line MDA-MB-175-VII. Cells were used around 90% of confluence at the time of an assay, detached with Trypsin-Versene (EDTA) (Lonza) for 5-10 minutes, washed and adjusted to a concentration of 1×10⁶ cells/mL in ice-cold FACS buffer (PBS 1×, 0.1% v/w BSA, 0.02% v/v sodium azide (NaN₃)). Staining was performed in 96-well round-bottomed microtiter plates using ice-cold reagents/solutions at 4° C. to prevent the modulation and internalization of surface antigens. 100,000 cells/well were added to 96-well plates (100 μL/well) and centrifuged at 300×g for 3 minutes. In case of pre-incubation with HGF, the cells were resuspended in 50 ng/mL recombinant human HGF in FACS buffer (50 μL/well) and incubated for 30 minutes at 4° C., followed by two wash steps with 150 μL FACS buffer. Supernatant was discarded and cells were stained for 30 minutes with 50 μL of each antibody. Serial dilutions were made in ice-cold FACS buffer. Cells were washed twice by centrifugation at 300×g for 3 minutes and resuspended in 50 μL 6000-times diluted secondary F(ab′)₂ goat anti-human IgG (Fc fragment specific) antibody APC-conjugated (Jackson ImmunoResearch). Following a 30-minute incubation on ice, cells were washed again 2 times and resuspended in 150 μL ice-cold FACS buffer for FACS analysis. For analysis of the data, the Median Fluorescence Intensity (MFI) values were obtained.

[2] = molecular target: T2, human c-Met (HGFR), full length, on the cell surface (human, UniProt P08581 25-1390); test: flow cytometry, MKN45 cells, without HGF
T2 construct: Endogenous c-Met on human tumor cell lines MKN45, NCI-H596, PC-3 and HepG2; also called hepatocyte growth factor receptor; mesenchymal-epithelial transition factor
T2 sequence (P08581 25-1390 limits assumed): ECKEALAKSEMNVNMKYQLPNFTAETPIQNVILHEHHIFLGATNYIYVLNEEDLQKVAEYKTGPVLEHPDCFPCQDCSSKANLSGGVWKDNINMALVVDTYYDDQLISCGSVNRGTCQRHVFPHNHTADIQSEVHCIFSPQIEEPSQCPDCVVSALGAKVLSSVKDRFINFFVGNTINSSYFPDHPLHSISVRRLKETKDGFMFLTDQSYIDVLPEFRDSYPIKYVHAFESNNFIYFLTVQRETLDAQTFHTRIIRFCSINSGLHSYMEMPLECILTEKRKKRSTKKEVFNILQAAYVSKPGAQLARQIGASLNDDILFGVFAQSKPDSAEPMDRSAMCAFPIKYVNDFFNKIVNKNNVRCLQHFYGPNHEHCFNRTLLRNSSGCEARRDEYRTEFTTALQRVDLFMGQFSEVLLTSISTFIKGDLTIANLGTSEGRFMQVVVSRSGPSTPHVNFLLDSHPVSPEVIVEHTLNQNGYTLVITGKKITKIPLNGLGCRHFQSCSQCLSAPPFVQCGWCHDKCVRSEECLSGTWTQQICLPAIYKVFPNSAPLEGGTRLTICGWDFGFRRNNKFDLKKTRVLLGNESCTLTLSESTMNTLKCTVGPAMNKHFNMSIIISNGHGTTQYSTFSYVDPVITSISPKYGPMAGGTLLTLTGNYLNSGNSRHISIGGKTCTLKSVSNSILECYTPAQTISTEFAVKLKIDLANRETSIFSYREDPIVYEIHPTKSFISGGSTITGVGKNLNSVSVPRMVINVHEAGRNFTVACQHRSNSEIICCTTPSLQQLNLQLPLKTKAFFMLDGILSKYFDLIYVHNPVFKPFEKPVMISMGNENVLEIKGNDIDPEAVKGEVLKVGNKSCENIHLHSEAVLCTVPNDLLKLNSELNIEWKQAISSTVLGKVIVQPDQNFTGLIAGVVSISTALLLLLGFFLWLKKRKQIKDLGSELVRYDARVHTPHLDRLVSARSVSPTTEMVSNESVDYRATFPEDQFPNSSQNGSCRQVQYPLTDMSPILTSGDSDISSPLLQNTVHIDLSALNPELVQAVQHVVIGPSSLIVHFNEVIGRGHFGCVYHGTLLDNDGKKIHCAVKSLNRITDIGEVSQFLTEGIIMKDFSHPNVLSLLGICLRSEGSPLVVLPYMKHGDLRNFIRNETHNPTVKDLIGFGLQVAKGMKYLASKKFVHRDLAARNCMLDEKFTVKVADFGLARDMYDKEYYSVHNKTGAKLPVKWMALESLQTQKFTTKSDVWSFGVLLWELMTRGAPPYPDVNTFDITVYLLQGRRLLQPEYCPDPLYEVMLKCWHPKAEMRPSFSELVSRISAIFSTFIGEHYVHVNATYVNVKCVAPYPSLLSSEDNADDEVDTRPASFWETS
Method: as §1

[3] = molecular target: T2, human c-Met (HGFR), full length, on the …; test: flow cytometry, PC-3 cells pre-incubated with 50 ng/mL HGF
Method: as §1

[4] = molecular target: T1, rhesus c-Met on 4MBr-5 cells; test: flow cytometry, 4MBr-5 cells, without HGF
Method: as §1

[5] = molecular target: T1, rhesus c-Met on 4MBr-5 cells; test: flow cytometry, 4MBr-5 cells; EC50 with 50 ng/mL HGF against EC50 without HGF
Method: as §1

[6] = molecular target: T2, human c-Met (HGFR), full length, on the …; test: flow cytometry, NCI-H596 cells, without HGF
Method: as §1

[7] = molecular target: T2, human c-Met (HGFR), full length, on the …; test: flow cytometry, PC-3 cells, without HGF
Method: as §1

[8] = molecular target: T2, human c-Met (HGFR), full length, on the …; test: flow cytometry, NCI-H596 cells pre-incubated with 50 ng/mL HGF
Method: as §1

[9] = molecular target: T2, human c-Met (HGFR), full length, on the …; test: flow cytometry, PC-3 cells; EC50 with 50 ng/mL HGF against EC50 without HGF
Method: as §1

[10] = molecular target: T2, human c-Met (HGFR), full length, on the …; test: flow cytometry, NCI-H596 cells; EC50 with 50 ng/mL HGF against EC50 without HGF
Method: as §1

[11] = molecular target: T2, human c-Met (HGFR), full length, on the …; test: flow cytometry on MKN45, NCI-H596 and PC-3 cells
Method: as §1, with “14 wild-type chimeric and the 14 HC-41C chimeric” for “in total 75 humanized”, “antibodies” for “antibodies (originating from the three selected chimeric antibodies)”, “HGF (paracrine cell lines only),” for “HGF,”

Binder	EC50 [1] [µg/mL]	EC50 [2] [µg/mL]	EC50 [3] [µg/mL]	EC50 [4] [µg/mL]	Fold shift (HGF) [5] [fold]	EC50 [6] [µg/mL]	EC50 [7] [µg/mL]	EC50 [8] [µg/mL]	Fold shift (HGF) [9] [fold]	Fold shift (HGF) [10] [fold]	binding result [11]
B1	0.08	0.16	0.15	0.07	1.1	0.04	0.08	0.1	1.9	2.5	
B2	0.09	0.11	0.09	0.07	1.2	0.03	0.03	0.1	3.1	3.3	
B3	0.09	0.09	0.09	0.06	1.4	0.02	0.04	0.08	2.3	4	
B4	0.15	0.14	0.13	0.09	1.7	0.04	0.05	0.11	2.6	2.8	
B5	0.03	0.05	0.06	0.02	1.7	0.02	0.03	0.11	1.9	5.5	
B6	0.05	0.07	0.08	0.03	1.6	0.02	0.03	0.15	2.7	7.5	
B7	0.04	0.07	0.09	0.03	1.4	0.02	0.03	0.14	2.8	7	
B8	0.03	0.07	0.07	0.04	0.8	0.02	0.03	0.08	2.4	4	
B9											binds
B10											binds
B11											binds
B12											binds
